PMC6953117

Target: giantin-WT-GFP (UniProt Q14789)
Test: atomic force microscopy (particle volumes); giantin-GFP isolated with GFP-Trap Magnetic Agarose from DMSO- or BFA-treated HeLa cells (lysate with NEM), treated with 2% β-mercaptoethanol, deposited on mica, tapping mode in air; volumes by the spherical cap model, Gaussian fit of the …
Conditions: remark: other sources report otherwise

percent of particles in the dimer peak (BFA-treated cells): 10%
percent of particles in the dimer peak (DMSO-treated cells): 27%
stoichiometry N: 2
Substance: giantin-WT-GFP, Q14789 1-3259
